Test system: ZFP-TF 8982-KRAB
Test: cell_activity
Conditions: rat DRG neurons, lentiviral; Nav1.8 mRNA vs GFP control; which of SEQ 2 (GAA) or SEQ 3 (CAA) is the rat site is not stated

Question: With “GAAGAAGAATGAGAAGATG (double strand) [Nav1.8 target site (GAA variant)]” as the sequence, how does the activity (fold repression) read?
Answer: Its activity (fold repression) is 10.

Source: US20090215878
